From patent US20190367619A1 (ARGENX, published 2019)
Residue numbers refer to the chain shown, from its start.

Columns and labels:
[1] = target: T1, cynomolgus galectin-10-His, WGS isoform (cynomolgus); test: ELISA, mouse IgG1 on coated cynoGal10-His_WGS (0.5 ug/mL)
T1 construct: not shown: His tag
T1 chain: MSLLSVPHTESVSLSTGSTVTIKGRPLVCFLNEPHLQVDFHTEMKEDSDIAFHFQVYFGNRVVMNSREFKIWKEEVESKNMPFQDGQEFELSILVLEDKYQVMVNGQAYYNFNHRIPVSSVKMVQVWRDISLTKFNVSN
Description: (§1) In a similar setup to that used during the characterization of the scFv-human Fc molecules, the relative binding properties of the 7 mouse IgG1 antibodies were analyzed by ELISA. A Maxisorp plate was coated overnight with 0.5 μg/mL of human or cynomolgus WGS or YRT isoform of galectin-10-His. Then a serial dilution of each clone (from 100 nM, dilution 1/4, 12 points of dilutions) was incubated on coated galectin-10. After several washing steps, detection of the bound mouse IgG1 was carried out with an anti-mouse Fc-HRP antibody (DAMPO, Jackson ImmunoResearch, Catalog 715-035-150). Absorbance was measured at 450 nm (reference at 620 nm) with Tecan instrument. The raw data (OD values) were plotted on GraphPad Prism 7.01. The EC50 values for each antibody, calculated with a non-linear regression (log(agonist) vs. response Variable slope (four parameters)), are shown in the table below. Antibody 1D11 from the previous panel was included for comparison.

[2] = target: T2, human galectin-10-His (recombinant human galectin-10 with TEV-cleavable N-terminal His-tag) (human); test: BLI tandem on galectin-10-His; competitor: saturating 6B06 mIgG1 (10 ug/mL)
T2 construct: SEC-MALLS: dimer in solution; also called Gal10-His; humanGal10-His
T2 chain: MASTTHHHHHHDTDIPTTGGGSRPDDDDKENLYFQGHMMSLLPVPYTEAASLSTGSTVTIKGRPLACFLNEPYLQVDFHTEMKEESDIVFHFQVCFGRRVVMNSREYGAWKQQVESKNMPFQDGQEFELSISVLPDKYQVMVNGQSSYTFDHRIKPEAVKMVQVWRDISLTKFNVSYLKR
In short: (§2)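 Anti-His tips load galectin-10-His → excess saturating mAb → direct transfer to competitor mAb (suboptimal conc.). Read-out: BLI nm shift; no signal = same epitope.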

[3] = target: T2, human galectin-10-His (recombinant …); test: ELISA, mouse IgG1 on coated galectin-10-His (0.2 ug/mL)
In short: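 Serial dilutions of each antibody (from 100 nM, 1/4 steps, 12 points) were incubated on plates coated overnight with the antigen. Bound IgG1 detected with anti-mouse Fc-HRP, absorbance at 450 nm (reference 620 nm). EC50 from four-parameter variable-slope non-linear regression of OD values.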

[4] = target: T2, human galectin-10-His (recombinant …); test: BLI tandem on galectin-10-His; competitor: saturating 4E08 mIgG1 (10 ug/mL)
In short: as §2

[5] = target: T3, cynomolgus galectin-10-His, YRT isoform (cynomolgus); test: ELISA, mouse IgG1 on coated cynoGal10-His_YRT (0.5 ug/mL)
T3 construct: not shown: His tag
T3 chain: T1 chain with K23E, G24A, L31F, F69Y, K70R, I71T, S92R
Description: as §1

[6] = target: T2, human galectin-10-His (recombinant …); test: BLI tandem on galectin-10-His; competitor: saturating 2C07 mIgG1 (10 ug/mL)
In short: as §2

[7] = target: T4, TEV-cleaved wild-type recombinant human galectin-10 (soluble, in Fab complexes, or as recombinant galectin-10 … (human, UniProt Q05315 1-142)); test: cell-based or functional assay
T4 sequence: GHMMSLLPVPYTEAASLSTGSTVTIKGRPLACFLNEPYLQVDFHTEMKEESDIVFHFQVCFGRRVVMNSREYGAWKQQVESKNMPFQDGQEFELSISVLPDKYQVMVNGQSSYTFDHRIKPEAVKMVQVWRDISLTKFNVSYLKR

[8] = target: T2, human galectin-10-His (recombinant …); test: ELISA binding (summary table), mouse IgG1
[9] = target: T2, human galectin-10-His (recombinant …); test: BLI tandem on galectin-10-His; competitor: saturating 1C09 mIgG1 (10 ug/mL)
In short: as §2

[10] = target: T2, human galectin-10-His (recombinant …); test: Biacore capture approach (summary table), mouse IgG1
Description: The binding capacity of the mouse IgG1 antibodies to galectin-10 was analyzed on Biacore T3000. For this purpose, a capture approach was set up. A CM5 Chip was coated with polyclonal anti-mouse Fc at 8000 RU, then a fixed concentration of the mouse IgG1 antibody panel (1.5 μg/mL), diluted in HBS-EP pH7.4, was captured to reach a binding signal around 150 RU. Finally, a serial dilution of galectin-10-His (serial dilution, 1 over 2 from 5 μg/mL) diluted in HBS-EP pH7.4 was injected. Raw data were analyzed via BIA evaluation software with a blank subtraction (4-3). The kd/KD and Rmax of each mAb to galectin-10-His was determined using the Fit Kinetics simultaneous ka/kd/Binding with mass transfer/Local Rmax on BIA evaluation software.

B1: 1D11 mouse IgG1 (antibody, V domains shown)
VH: QVQLVESGGGLVQPGGSLRLSCAASGFTFDDYAMSWVRQAPGKGLEWVSGISWNGGSTYYAESMKGRFTISRDNAKNTLYLQMNSLKSEDTAVYYCAKDRNLGYRLGYPYDYWGQGTQVTVSS
VL: QSVLTQPPSVSGSPGETVTISCAGTSSDVGYGNYVSWYQQLPGMAPRLLIYEVNKRASGITDRFSGSKSGNTASLTISGLQSEDEGDYYCASYRSSNNAVFGGGTHLTVL
notes: VH on mouse IgG1 heavy chain constant domains (CH1-CH2-CH3), VL on mouse lambda light chain constant domain; also called 1D011; 1D11 mIgG1
binding result [1]: no binding | binding signal (nm) [2]: 0 nm | Bmax [3]: 1.5 OD | EC50 [3]: 100 pM | binding signal (nm) [4]: 0 nm | binding result [5]: no binding | binding signal (nm) [6]: 0.02 nm | 100% Solubilization of CLC (Conc uM) [7]: 7.86 µM | EC50 [8]: 100 pM | binding signal (nm) [9]: 0.01 nm | Kd [10]: 1000 pM | koff [10]: 0.00529 s⁻¹
